Like-named read-outs stand apart in the source and are kept apart here.

What all share (test): BLI heatmap
The target of test [1] is T1, F peptide FAKLDEESILKQK (XAKLDEESILKQK, X = F).
T1 construct: Immobilized on the biolayer interferometry sensor
T1 peptide: FAKLDEESILKQK

In test [2] the target is T2, VA peptide VAKLDEESILKQK (XAKLDEESILKQK, X = V).
T2 construct: Immobilized on the biolayer interferometry sensor
T2 peptide: VAKLDEESILKQK

In test [3] the target is T3, IA peptide IAKLDEESILKQK (XAKLDEESILKQK, X = I).
T3 construct: Immobilized on the biolayer interferometry sensor
T3 peptide: IAKLDEESILKQK

The target in test [4] is T4, LA peptide LAKLDEESILKQK (XAKLDEESILKQK, X = L).
T4 construct: Immobilized on the biolayer interferometry sensor
T4 peptide: LAKLDEESILKQK

Test [5] deals with T5, W peptide WAKLDEESILKQK (XAKLDEESILKQK, X = W).
T5 construct: Immobilized on the biolayer interferometry sensor
T5 peptide: WAKLDEESILKQK

In test [6] the target is T6, Y peptide YAKLDEESILKQK (XAKLDEESILKQK, X = Y).
T6 construct: Immobilized on the biolayer interferometry sensor
T6 peptide: YAKLDEESILKQK

Test [7] addresses T2, VA peptide VAKLDEESILKQK ….
The target of test [8] is T3, IA peptide IAKLDEESILKQK ….
In test [9] the target is T4, LA peptide LAKLDEESILKQK ….
Test [10] has as its target T1, F peptide FAKLDEESILKQK (XAKLDEESILKQK, …).

B1: PS574 (other)
chain: MANATPTPDVVPEEETETRTRRQPPYAVVLHNDDTNTMDFVVTVLRKVFGYTVEKCVELMLEAHTQGKVAVWIGALEVAELKADQIKSFGPDPHVTKNGHPLGVTVEPAA
In the case of B1, the binding result was “binds” in [1], “no binding” in test [2], “no binding” in test [3] and “no binding” in [4].

B2: PS554 (other)
chain: MSDSASATVEVQADPPADATARSQPTPARSTGSKPKRQPRYHVVLWNDDDHTYEYVIAMLRRLFGIEPEKGFRIAEEVDQSGRAVVLTTTREHAELKRDQIHAFGADRLLARSKGSMSASIEPEA
On to B2, for which the binding result is “no binding” in test [1], “binds” in [2], “binds” in test [3] and “binds” in [4].

B3: PS571 (other)
chain: MTSSGASQPSILEETERKPRLSDGPWKVVLWDDDFHTYEYVIEMLMDVCQMPWEKAFQHAVEVDTRKKTIVFFGELEHAEFVHERILNYGPDPRMGTSKGSMTATLEK
Turning to B3, the binding result in test [1] is on record as “no binding”; in [2], “binds”; in [3] it was “binds”; in test [4], “binds”.

B4: PS577 (other)
chain: MSASSSQPGTTTKPDLDIQPRLLPPFHVILENDEFHSMEFVIDTLRKVLGVSIERAYQLMMTAHESGQAIIWTGPKEVAELKYEQVIGFHEKRSDGRDLGPLGCRIEPAV
For the molecule B4, the binding result in test [1] is given as “binds”; in test [2], “no binding”; in test [3] it was “no binding”; in test [4], “no binding”.

B5: PS576 (other)
chain: MASTQTPDLNEITEESTKSTGGPWRVVLWDDNEHTYEYVIEMLVEICMMTVEKAFLHAVQVDKEKRTVDFSGELEHAEHVQERILNYGADPRMSNSKGSMSATLER
B5: the binding result in [1], in test [2], in test [3] and in test [4] was “no binding” in each case.

B6: PS562 (other)
chain: MSDQQSMVAEPEVVVHTQDEKKLEKQNKRKKQPRYNVVLWDDTDHSYDYVVLMMKQLFHHPIETGFQIAKQVDKGGKAICLTTTMEHAELKRDQIHAFGKDDLIARCTGSMSATIEPVPE
For the molecule B6, the binding result in test [1], in test [2], in [3] and in [4] was “no binding” in each case.

B7: PS429 (other)
chain: MSVQEEVLEEVKTKERVNKQNQIIVFNDDVNTFDHVIDMLIATCDHDPIQAEQCTMLIHYKGKCEVKTGDYDDLKPRCSKLLDAGISAEIQ
Regarding B7, the binding result in test [5], in test [6], in test [7], in test [8] and in [9] was “no binding” in each case.

B8: PS572 (other)
chain: MSSEELSLQTRPKRQPPFGVILHNDDLNSFDYVIDSIRKVFHYELEKCFQLTLEAHETGRSLLWTGTLEGAELKQELLLSCGPDPIMLDKGGLPLKVTLEELPQ
Consider B8, for which the binding result in [1] was “binds”; in test [2] it was “no binding”; in test [3], “no binding”; in [4] it was “no binding”.

B9: PS391 (other)
chain: MGQTVEKPRVEGPGTGLGGSWRVIVRNDDHNTFDHVARTLARFIPGVSLERGHEIAKVIHTTGRAVVYTGHKEAAEHYWQQLKGAGLTMAPLEQG
With B9, the binding result in [6], in [10] and in test [9] was “binds” throughout.

B10: PS552 (other)
chain: MSKTSTLPEVESESAQKLKYQPPYHVILLNDDDHSYVYVITMLKELFGHPEQKGYQLADAVDKQGRAIVFTTTREHAELKQEQIHAYGPDPTIPRCKGAMTAVIEPAE
Consider B10, for which the binding result is “no binding” in [1], “binds” in [2], “binds” in [3] and “binds” in test [4].

B11: PS369 (other)
chain: MTSTLRARPARDTDLQHRPYPHYRIIVLDDDVNTFQHVVNCLVTFLPGMTRDQAWAMAQQVDGEGSAVVWTGPQEQAELYHVQLGNHGLTMAPLEPV
Take B11: the binding result in test [6], in [10] and in test [9] was “binds” in each case.

B12: PS563 (other)
chain: MSSRSATAYPEVEDDTSDQLQPLYHVILLNDEDHTYDYVIEMLQKIFGFPESKAFSHAVEVDTKGTTILLTCDLEQAERKRDLIHSYGPDWRLPRSLGSMAAVVEPAAG
On to B12, for which the binding result in test [1] is listed as “no binding”; in test [2], “binds”; in test [3] it was “binds”; in [4], “binds”.

B13: PS561 (other)
chain: MAELQTAVVEPTTRPEQDEKQSQSRPKRQPRYNVILWDDPDHSYDYVIMMLKELFGHPRQRGHQMAEEVDTTGRVICLTTTMEHAELKRDQIHAYGSDEGITRCKGSMSASIEPVPE
On to B13, for which the binding result in test [1], in [2], in test [3] and in [4] was “no binding” throughout.

B14: PS377 (other)
chain: MADISKSRPEIGGPKGPQFGDSDRGGGVAVITKPVTKKKFKRKSQTEYEPYWHVLLHHDNVHTFEYATGAIVKVVRTVSRKTAHRITMQAHVSGVATVTTTWKAQAEEYCKGLQMHGLTSSIAPDSSFTH
Regarding B14, the binding result in [5] is listed as “binds”; in test [6], “no binding”; in test [7], “no binding”; in [8], “no binding”; in test [9], “no binding”.

B15: PS431 (other)
chain: MIISSVKSSPSTETLSRTELQLGGVWRVVVLNDPVNLMSYVMMIFKKIFGFNETVARRHMLEVHEKGRSVVWSGLREKAEAYVFTLQQWHLTAVLESDETH
In the case of B15, the binding result in test [5], in test [6], in [7], in [8] and in test [9] was “no binding” throughout.

B16: PS573 (other)
chain: MSQTPVIEETTVKDPVKTGGPWKVVLWDDDEHTYDYVIEMLMEVCVMTMEQAFHHAVEVDTQKKTVVYSGEFEHAEHIQELILEYGPDPRMAVSKGSMSATLEKS
As for B16, the binding result is given as “no binding” in [1], “binds” in test [2], “binds” in test [3] and “binds” in [4].

B17: PS553 (other)
chain: MPASASAVTEPPVSLPEAAAPRPKDRPKRQPRYHVILWNDDDHTYQYVVAMLRQLFGHPPEKGFTLAKQVDKDGRVVVLTTTKEHAELKRDQIHAFGADRLLARSKGSMSASIEPEASTG
In the case of B17, the binding result in test [1] is “no binding”; in test [2], “binds”; in test [3], “binds”; in [4] it was “binds”.

B18: PS567 (other)
chain: MADYEDAGEDALEDDFDHGTVTVAPQKPEPKKQSENKRQANRQPRYNVLLWDSEDHTFEYVEKMLRELFGHIKKQCQIIAEQVDQEGRAVVLTTTLEHAELKRDQIHAYGKDQLEGSKGSMWSTIEAVD
As to B18, the binding result in test [1], in test [2], in [3] and in [4] was “no binding” in each case.

B19: PS564 (other)
chain: MFEEVVSVAVAEPKTKKQSRTKPKRQPPYHVILWDDTDHTFDYVIKMMGELFRMPREKGYQLAKEVDTSGRAICMTTTLELAELKRDQIHAFGRDDASAHCKGSMSATIEPAEG
As to B19, the binding result in test [1], in test [2], in test [3] and in test [4] was “no binding” throughout.

The values above are taken from patent US20210364527A1 (QUANTUM SI, published 2021).
